In paper PMC11236199 one finds stoichiometry N data, which are given here for 2 substances.

The target of assay [1] is civet SARS CoV SZ3/2003 spike protein ectodomain (civet SARS CoV SZ3/2003 | bacteriophage T4). As to the kind of experiment: cryo-EM structure.
For assay [2], the target named is civet SARS CoV 007/2004 spike protein ectodomain (civet SARS CoV 007/2004 | bacteriophage T4). As to the kind of experiment: cryo-EM structure.

Regarding “civet SARS CoV SZ3/2003 spike protein ectodomain (domain or fragment)”, the stoichiometry N (commonly a count of units in the complex or per binding partner) in assay [1] is 3.

Substance “civet SARS CoV 007/2004 spike protein ectodomain (domain or fragment)” yielded a stoichiometry N in assay [2] of 3.
